Assays:
[1] = target: human cardiac muscle wild-type α-actin (recombinant) (human) (UniProt P68032)
[2] = target: human cardiac α-actin mutant p.A295S (human)
[3] = target: human cardiac α-actin mutant p.E361G (human)
[4] = target: human cardiac α-actin mutant p.R312H (human)
[5] = target: human cardiac muscle wild-type α-actin (recombinant) (human) (UniProt P68032); experiment: pyrene-actin polymerization assay; 5 µM c-actin with pyrene-labeled skeletal muscle actin added at 20:1, G-buffer; polymerization induced by 2 mM MgCl2 and 0.1 M KCl; rise of pyrene fluorescence; control without nucleator

Sequence of FH2-domain of the formin mDia3 (O70566 625-1025): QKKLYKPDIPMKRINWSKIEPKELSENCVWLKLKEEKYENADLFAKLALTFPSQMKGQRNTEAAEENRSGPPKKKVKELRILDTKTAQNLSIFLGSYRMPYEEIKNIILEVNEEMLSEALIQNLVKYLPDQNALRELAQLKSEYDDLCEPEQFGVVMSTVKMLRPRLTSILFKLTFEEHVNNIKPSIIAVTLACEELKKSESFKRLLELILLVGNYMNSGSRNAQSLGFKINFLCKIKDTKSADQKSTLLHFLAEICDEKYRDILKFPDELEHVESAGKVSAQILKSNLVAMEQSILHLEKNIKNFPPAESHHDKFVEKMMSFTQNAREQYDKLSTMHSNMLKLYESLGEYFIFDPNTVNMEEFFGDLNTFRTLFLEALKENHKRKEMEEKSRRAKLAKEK

## Arp2/3 complex isolated from Acanthameba castellani
[1]
  half time of polymerization (t1/2) of 5 µM c-actin with 50 nM Arp2/3 complex, pyrene-actin assay (control without nucleator 8.6 min): 2.1 min
[2]
  half time of polymerization (t1/2) of 5 µM c-actin with 50 nM Arp2/3 complex, pyrene-actin assay (control without nucleator 12.2 min): 1.2 min
[3]
  half time of polymerization (t1/2) of 5 µM c-actin with 50 nM Arp2/3 complex, pyrene-actin assay (control without nucleator 4.0 min): 1.8 min
[4]
  half time of polymerization (t1/2) of 5 µM c-actin with 50 nM Arp2/3 complex, pyrene-actin assay (control without nucleator 13.8 min): 1 min

## human cardiac muscle wild-type α-actin (recombinant) (from UniProt P68032 1-377) (natural protein)
[5]
  half time of polymerization (t1/2): 8.6 min

## FH2-domain of the formin mDia3 (from UniProt O70566 625-1025) (domain or fragment)
[1]
  half time of polymerization (t1/2) of 5 µM c-actin with 50 nM mDia3-FH2, pyrene-actin assay (control without nucleator 8.6 min): 6.9 min
[2]
  half time of polymerization (t1/2) of 5 µM c-actin with 50 nM mDia3-FH2, pyrene-actin assay (control without nucleator 12.2 min): 3.5 min
[3]
  half time of polymerization (t1/2) of 5 µM c-actin with 50 nM mDia3-FH2, pyrene-actin assay (control without nucleator 4.0 min): 2.9 min
[4]
  half time of polymerization (t1/2) of 5 µM c-actin with 50 nM mDia3-FH2, pyrene-actin assay (control without nucleator 13.8 min): 4.1 min
